How the values were obtained:
Assay in all cases: cell-based or functional assay
[1] = target: Bacillus subtilis xylanase A mutant D11K (Bacillus subtilis) (UniProt P18429)
[2] = target: Bacillus subtilis xylanase A mutant D121A (Bacillus subtilis) (UniProt P18429)
[3] = target: Bacillus subtilis xylanase A mutant N114D (Bacillus subtilis) (UniProt P18429)
[4] = target: Bacillus subtilis xylanase A mutant N17K (Bacillus subtilis) (UniProt P18429)
[5] = target: Bacillus subtilis xylanase A mutant R122A (Bacillus subtilis) (UniProt P18429)
[6] = target: Bacillus subtilis xylanase A mutant Y113A (Bacillus subtilis) (UniProt P18429)

Relative inhibition, % at 1, 26 XIU/ml [1]: 109% | Relative inhibition, % at 3, 15 XIU/ml [1]: 112% | Relative inhibition, % at 6, 3 XIU/ml [1]: 113% | Relative inhibition, % at 12, 6 XIU/ml [1]: 116% | Relative inhibition, % at 1, 26 XIU/ml [2]: 81% | Relative inhibition, % at 3, 15 XIU/ml [2]: 50% | Relative inhibition, % at 6, 3 XIU/ml [2]: 27% | Relative inhibition, % at 12, 6 XIU/ml [2]: 21% | Relative inhibition, % at 1, 26 XIU/ml [3]: 84% | Relative inhibition, % at 3, 15 XIU/ml [3]: 57% | Relative inhibition, % at 6, 3 XIU/ml [3]: 39% | Relative inhibition, % at 12, 6 XIU/ml [3]: 29% | Relative inhibition, % at 1, 26 XIU/ml [4]: 88% | Relative inhibition, % at 3, 15 XIU/ml [4]: 48% | Relative inhibition, % at 6, 3 XIU/ml [4]: 31% | Relative inhibition, % at 12, 6 XIU/ml [4]: 26% | Relative inhibition, % at 1, 26 XIU/ml [5]: 78% | Relative inhibition, % at 3, 15 XIU/ml [5]: 46% | Relative inhibition, % at 6, 3 XIU/ml [5]: 33% | Relative inhibition, % at 12, 6 XIU/ml [5]: 26% | Relative inhibition, % at 1, 26 XIU/ml [6]: 96% | Relative inhibition, % at 3, 15 XIU/ml [6]: 80% | Relative inhibition, % at 6, 3 XIU/ml [6]: 62% | Relative inhibition, % at 12, 6 XIU/ml [6]: 43%
Substance: wheat endogenous xylanase inhibitor

From US20030180895A1
